Where a chain is given by its changes, count along the chain named.
B1: ADI-25577 (antibody, V domains shown)
VH: QVTLKESGGGLVKPGGSLRLSCAASGFTFSSYSMNWVRQAPGKGLEWVSSISSSSSYIYYADSVKGRFTISRDNAKNSLYLQMNSLRAEDTAVYYCARYSSSLGAFDIWGQGTMVTVSS
VL: QSALTQPPSVSGAPGQRVTISCTGSSSNIGAGYDVHWYQQLPGTAPKLLIYGNSNRPSGVPDRFSGSKSGTSASLAITGLQAEDEADYYCQSYDSSLSDVFGTGTKLTVL
notes: full-length IgG
B2: ADI-14394 (antibody, V domains shown)
VH: EVQLLESGGGLVKPGGSLRLSCAASGFTFSSYSMNWVRQAPGKGLEWVSSISSSSSYIYYADSVKGRFTISRDNAKNSLYLQMNSLRAEDTAVYYCARGSEYYFDYWGQGTLVTVSS
VL: B1 VL with A3V, D99V, T103G, L107V
notes: also called Ab 61
B3: ADI-14395 (antibody, V domains shown)
VH: EVQLVESGGGVVQPGRSLRLSCAASGFTFSSYAMHWVRQAPGKGLEWVAVISYDGSNKYYADSVKGRFTISRDNSKNTLYLQMNSLRAEDTAVYYCARDDTYYYDSSGYSAPFDYWGQGTLVTVSS
VL: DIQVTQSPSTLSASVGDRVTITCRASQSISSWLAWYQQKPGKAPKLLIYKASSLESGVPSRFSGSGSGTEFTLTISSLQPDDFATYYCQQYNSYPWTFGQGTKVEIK
notes: also called Ab 62
B4: ADI-14397 (antibody, V domains shown)
VH: B3 VH with S107N
VL: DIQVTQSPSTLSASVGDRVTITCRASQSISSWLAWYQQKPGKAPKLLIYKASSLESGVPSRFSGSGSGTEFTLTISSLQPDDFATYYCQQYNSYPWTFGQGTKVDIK
notes: also called Ab 64
B5: ADI-14419 (antibody, V domains shown)
VH: EVQLVESGGGVVQPGGSLRLSCAASGFSFSDYGMHWVRQAPGKGLEWVSFIRYDASYKFYADSVKGRFTISRDNAKNTLYLQINSLRAEDTAVYYCAKEIYGSGSYYYYYYAIDVWGQGTTVTVSS
VL: EIVLTQSPGTLSLSPGERATLSCRASQSVSSSHLAWYQQKPGQAPRLLIYGASSRATGIPDRFSGSGSGTDFTLTISRLEPEDFAVYYCQQYFRSAWAFGQGTKVDIK
notes: also called Ab 85
B6: ADI-14571 (antibody, V domains shown)
VH: QVQLVQSGAEVKKPGSSVKVSCKASGGTFSTYTITWVRQAPGQGLEWMGRIVPIFGVVNNAQKFLGRLTITADKSTSTAYMELSSLRSEDTAVYYCARIPCSGNCQDYYYGMDVWGQGTTVTVSS
VL: DIQLTQSPSFLSASVGDRVTITCRASQGISSYLVWYQQKPGKAPKLLIYAASTLQSGVPSRFSGSGSGTEFTLTISSLQPEDFATYYCQQLNNYPPTFGPGTKVDIK
B7: ADI-14572 (antibody, V domains shown)
VH: QVQLVQSGGGLVKPGGSLRLSCAASGFTFSNAWISWVRQAPGKGLEWVGRIKSATDGGTTDYAAPVKGRFTISRDDSKNTLYLQMDSLKTEDTAVYYCTTSYPYFDWLPFSVDYWGQGTLVTVSS
VL: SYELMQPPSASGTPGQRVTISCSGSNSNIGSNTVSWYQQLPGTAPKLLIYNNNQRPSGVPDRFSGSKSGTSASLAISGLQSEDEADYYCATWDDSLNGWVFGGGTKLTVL
B8: ADI-14575 (antibody, V domains shown)
VH: QVQLVQSGAEVKKPGSSVKVSCKASGGTFSSYTISWVRQAPGQGLEWMGRIIPILGIANYAQKFQGRVTITADKSTSTAYMELSSLRSEDTAVYYCARPSSSSFAFDYWGQGTLVTVSS
VL: QSVLTQPASVSGSPGQSITISCTGTSSDVGGYNYVSWYQQHPGKAPKLMIYDVSNRPSGVSNRFSGSKSGNTASLTISGLQAEDEADYYCSSYTSSSTPVVFGGGTKVTVL
B9: ADI-14579 (antibody, V domains shown)
VH: QVQLVQSGAEVKKPGESLKISCKVSGYSFTSYWIGWVRQMPGKGLEWMGIIYPGDSDTRYSPSFQGQVTISADKSITTAYLQWSSLKASDTAMYYCARPAHSSSWYGAFDLWGQGTTVTVSS
VL: DIQMTQSPSSLSASVGDRVTITCRASQGISNYLAWYQQKPGKVPKLLIYAASTLQSGVPSRFSGSGSGTDFTLTISSLQPEDVATYYCQKYNSAPLTFGGGTKVEIK
B10: ADI-20965 (antibody, V domains shown)
VH: QVQLVQSGAEVKKPGASVKVSCKASGYNFTNYGISWVRQAPGQGLEWMGWISTSNGNTHYAQKSQGRITLTTDTSTNTAYMEVRSLRSDDTAVYYCAREGPESTYDWYHFDSWGQGTLVTVSS
VL: QSVVTQPPSVSVAPGQTAKITCGGNNIGSKTVHWYQLKAGQAPVLVVYDDSDRPSGIPERFSGSNSGNTATLTIRRVEAGDEADYFCQVWESASDHWVFGGGTKLTVL
B11: ADI-20977 (antibody, V domains shown)
VH: EVQLVESGGGLVQPGGSLRLSCAASGFTFTNYAMSWVRQAPGKGLEWVSGISGSGGSTYYADSVKGRFTISRDNSKNTLYLQMNSLRAEDTAVYYCAKDQGYAVVVADATRNLPPRRYGMDVWGQGTTVTVSS
VL: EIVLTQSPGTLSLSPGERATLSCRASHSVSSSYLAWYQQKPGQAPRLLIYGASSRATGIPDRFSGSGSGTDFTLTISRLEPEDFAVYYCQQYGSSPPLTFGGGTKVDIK
notes: also called Ab 230
B12: ADI-20994 (antibody, V domains shown)
VH: QVQLVQSGAEVKKPGASVKVSCKASGYTFSSNVIGWVRQAPGQGLEWMGWISTNNGNTKYGQKFQGRVTMTTDPSTSTAYMELRSLRSDDTAFYYCARESLGMGGFYFDYWGQGTLVTVSS
VL: QPVLTQPPSVSVAPGQTARITCGGDNIGSKSVHWYQQKPGQAPVLVVYDDSDRPSGIPERFSGSNSGNTASLTISRVEAGDEADYCCQVWDSGSDLWVFG
B13: ADI-21006 (antibody, V domains shown)
VH: QVTLKESGPTLVKPTQTLTLTCTFSGFSLSISGVGVGWIRQPPGKALEWLAVMYWDDDKRYSPSLKTRLTITKDTSKNQVVLTMTNMAPVDTAIYYCAHLWFGEAAFDPWGQGTLVTVSS
VL: EIVLTQSPLSLPVTLRQTASISCRSGQSLLYSDGNTYLNWFQQRPGQSPRRLISIVSKRDSGVPDRFSGSGSGTDFTLKISRVEAEDVGVYYCMQGTHWPYTFGQGTKVEIK
B14: ADI-21009 (antibody, V domains shown)
VH: QVQLVQSGAEMKTPGASVKVSCKASGYSFSNYGFTWVRQAPGQGLEWMGWISGYSAKTNYAQDLQGRVTMTIDTSTSTSYMELRSLRSDDTAVYYCARDPLGYFGSGTYRGGAFDFWGQGTTVTVSS
VL: QSALTQPASVSGSPGQSITLSCTGTNNDVGSYHLVSWYQQYPGKAPKLVIYEVTKRPSGVSNRFSGSKSGNTASLTISGLQPEDEADYYCCSYAGDRRIFGGGTKVTVL
notes: also called Ab 260
B15: ADI-21010 (antibody, V domains shown)
VH: EVQLVESGGGVVQPGRSLRLSCAASGFSFSTYGMHWVRQAPGKGLEWVGVIWYDETTKYYADSVKGRFSISRDNSKNMVYVQMNSLRADDTALYYCAREVWGGVFDIWGQGTTVTVSS
VL: DIQMTQSPATLSASVGDRVTITCRASQNIVTWLAWYQQKPGKAPNLLIYKASSLESGVPSRFSGSGSGTEFTLTISSLQPDDFATYYCQHYNSYSGAFGQGTKVDIK
B16: ADI-21031 (antibody, V domains shown)
VH: EVQLVESGPGLVKPSQTLSLTCTVSGGSISNSNYFWSWIRQPAGKGLEWIGRVHSSGTTSYNPSLKSRITISVDASESQFSLNLTSVTAADTAIYYCARDSSDWGLGWYFDLWGRGTLVTVSS
VL: ETTLTQSPATLSLSPGERATLSCRASQSVTFYLAWYQHKPGQAPRLLIFDASKRATGIPARFSGSGSGTDFTLTISSLEPEDFALYYCQQRSDWPQTFGQGTKVDIK
B17: ADI-21035 (antibody, V domains shown)
VH: EVQLVESGHEVKKPGASVKVSCKASGYTFPSYGISWVRQAPGQGLEWMGWIVPYNGNTKYAQRFQGRITMTTDSPTSTASMELRGLRSDDTAVYYCARVFGDGYSYGYEYWGQGTLVTVSS
VL: DIVLTQSPSTLSASVGDRVTITCRASQSISIWLAWYQQKPGKAPKLLIYKTSELVSGVPSRFSGSGSGTEFTLTISGLQPDDFATYYCQQGNSYSHTFGQGTKVEIK
B18: ADI-21041 (antibody, V domains shown)
VH: EVQLVESGGVVVQPGGSLRLSCAASGFTFDDYTMHWVRQAPGKGLEWVSLISWVGDTTYYADSVKGRFTISRDNSKNSLYLQMNSLRTEDTALYYCAKGGYYDGSGYYYFDYWGQGTLVTVSS
VL: DIRLTQSPSSLSASVGDRVTITCRASQSISNYLNWYQQKPGKAPKLLMYAASSLQSGVPSRFSGSGSGTDFTLTISSLQPEDFATYSCQQSYSTPYTFGQGTKVEIK
B19: ADI-21048 (antibody, V domains shown)
VH: EVQLVESGAEVKKPGASVKVSCKASGYTFSSHAISWVRQAPGHGLEWMGWISVFNGNTNYAQKFQGRVTMTTDTSTSTAYMELRSLRSDDAAVYYCAREVIGVGEFYFDYWGQGTLVTVSS
VL: QSVLTQPPSVSVAPGQTARITCGGNNIGSKSVHWYQQKAGQAPVLVVYDDSDRPSGIPERFLGSNSGNTATLTISRVEAGDEADYYCQVWDSSGDFHVFGTGTKVTVL
B20: ADI-21060 (antibody, V domains shown)
VH: EVQLVESGGGLVKPGGSLRLSCEASGFRLSDYYMTWIRQAPGKGLECISYISGGSTFKSYSDSVKGRFTISRDNTNLYLQMNSLRVEDTAVYYCARAPYLIYYMDVWGKGTTVTVSS
VL: QPVLTQPPSVSGAPGQRVSISCTGSNSNIGAGYDVHWYQQLPGTPPKLLIYDNNNRPSGVPDRFSGSKSGTSASLAITGLQAEDEADYYCQSYDNRLSGSQVLFGGGTKVTVL
B21: ADI-14584 (antibody, V domains shown)
VH: QVQLVQSGAEVKKPGASVKVSCKASGFTFTNYGTSYGITWVRQAPGQGLEWMGWINTSNGNPNYAQKLQGRVTMTADTSTSTAYMELRSLISDDTAVYYCARGHRMVRGVVPTGYYGLDVWGQGTTVTVSS
VL: B18 VL with R3Q, N31S, M48I, Y49F, S53N, S87Y, S93I, Y96W
notes: also called Ab 113

Each binder was assayed against T1, RSV postfusion F (postF), subtype A (respiratory syncytial virus subtype A, UniProt P03420 26-513) (assay: BLI).
T1 construct: also called Postfusion subtype A; F deltaFP
B1: no binding.

The binders below were run against T2, RSV prefusion F (preF), subtype B (respiratory syncytial virus subtype B) (assay: BLI, IgG).
T2 construct: also called Prefusion subtype B
Binder B1 has a Kd of 44.2 nM.

Each binder was assayed against RSV prefusion F (preF), subtype A (respiratory syncytial virus, subtype A, UniProt P03420 26-513) (assay: BLI, IgG).
B2 was tested, and the Kd was 11.5 nM.
Binder B3 has a Kd of 24.9 nM.
B4 was tested, and the Kd was 28.5 nM.
B5 showed a Kd of 2.69 nM.
B6 gave a Kd of 2.91 nM.
B7: no binding.
With B8 the Kd was 11.2 nM.
B9 gave a Kd of 7.54 nM.
For B10, the Kd was 0.121 nM.
B11 gave a Kd of 0.151 nM.
For B12, the Kd was 0.0894 nM.
For B13, the Kd was 10.4 nM.
With B14 the Kd was 4.88 nM.
B15 was tested, and the Kd was 3.58 nM.
For B16, the Kd was 1.07 nM.
For B17, the Kd was 10.3 nM.
For B18, the Kd was 7.3 nM.
In the case of B19, the Kd is reported as 0.111 nM.
Work on B20 yielded a Kd of 0.426 nM.

The binders below were run against RSV prefusion F (preF), subtype B (respiratory syncytial virus, subtype B) (assay: BLI, IgG).
With B9 the Kd was 3.73 nM.
B21 was tested, and the Kd was 0.476 nM.
In the case of B10, the Kd is reported as 0.533 nM.
B12 was tested, and the Kd was 0.109 nM.
B14 showed a Kd of 19.5 nM.
Work on B16 yielded a Kd of 1.5 nM.
In the case of B20, the Kd is reported as 0.349 nM.

What follows are binders tested against T3, RSV postfusion F (postF), subtype A (respiratory syncytial virus, subtype A, UniProt P03420 26-513) (assay: BLI, IgG).
T3 construct: also called F ΔFP; Postfusion subtype A
B2: no binding.
B3: no binding.
B4: no binding.
B5: no binding.
B6: no binding.
Binder B7 has a Kd of 17 nM.
B21: no binding.
B11: no binding.
B13: no binding.
B15: no binding.
B18: no binding.
